Reference: patent publication US20230201308A1, “TREATMENT OF CORONAVIRUS INFECTION WITH […]” (Eiger Biopharmaceuticals, Inc., priority 2020, published 2023)

Experiment: Third trial (TOGETHER): treatment emergent adverse events and drug adherence
Type: in vivo, human
Text: An adverse event (AE) is any adverse change from the participant's baseline (pre-treatment) condition, including intercurrent illness which occurs during the course of the trial, after the consent form has been signed, whether the event is considered related to treatment or not.
A serious adverse event (SAE) is any adverse event that at any dose: • results in death (grade 5 event) • is life-threatening (grade 4 event) • requires inpatient hospitalization or prolongation of existing hospitalization • results in persistent or significant disability or incapacity • is a congenital anomaly/birth defect
Study personnel collected outcome data via in-person, and via telephone or WhatsApp using video-teleconferencing on Days 1, 2, 3, 4, 5, 7, 10, 14, and 28. Adverse events were recorded at the time they occurred. All serious and non-serious adverse events were reported to study personnel as per local regulatory requirements. Reportable adverse events included serious adverse events, adverse events resulting in study medication discontinuation, and adverse events assessed as possibly related to study medication.

[1] = Treated within 3 days of symptom onset, n=539 vs placebo 586
[2] = Treated within 5 days of symptom onset, n=800 vs placebo 879
[3] = Unvaccinated population, n=143 vs placebo 176

B1: pegylated interferon lambda-1a (protein)
chain: MKPTTTGKGCHIGRFKSLSPQELASFKKARDALEESLKLKNWSCSSPVFPGNWDLRLLQVRERPVALEAELALTLKVLEAAAGPALEDVLDQPLHTLHHILSQLQACIQPQPTAGPRPRGRLHHWLHRLQEAPKKESAGCLEASVTFNLFRLLTRDLKYVADGNLSLRTSTHPEST
modifications: PEG
notes: 180 mcg subcutaneous injection
TEAE, Grade 1: n (N = 931): 27
TEAE, Grade 2: % (N = 931): (9.2%)
TEAE, Grade 2: n (N = 931): 86
TEAE, Grade 3: % (N = 931): (2.3%)
TEAE, Grade 3: n (N = 931): 21
TEAE, Grade 4: % (N = 931): (0.9%)
TEAE, Grade 4: n (N = 931): 8
TEAE, Grade 5: % (N = 931): (0.4%)
TEAE, Grade 5: n (N = 931): 4
Number experiencing TEAEs: Probability of Superiority (N = 931 vs placebo N = 1018): 88.5
Number experiencing TEAEs: RR (95% CrI), estimated treatment effect (N = 931 vs placebo N = 1018): 0.88 (0.71, 1.08)
Number experiencing possibly treatment-related TEAS: Probability of Superiority (N = 931 vs placebo N = 1018): 82.8
Number experiencing possibly treatment-related TEAS: RR (95% CrI), estimated treatment effect (N = 931 vs placebo N = 1018): 0.59 (0.18, 1.74)
Number experiencing serious TEAEs: Probability of Superiority (N = 931 vs placebo N = 1018): 93.6
Number experiencing serious TEAEs: RR (95% CrI), estimated treatment effect (N = 931 vs placebo N = 1018): 0.72 (0.46, 1.10)
TEAE, Grade 1: Probability of Superiority (N = 931 vs placebo N = 1018): 84.5
TEAE, Grade 1: RR (95% CrI), estimated treatment effect (N = 931 vs placebo N = 1018): 0.78 (0.48, 1.26)
TEAE, Grade 2: Probability of Superiority (N = 931 vs placebo N = 1018): 64.0
TEAE, Grade 2: RR (95% CrI), estimated treatment effect (N = 931 vs placebo N = 1018): 0.95 (0.72, 1.25)
TEAE, Grade 3: Probability of Superiority (N = 931 vs placebo N = 1018): 93.9
TEAE, Grade 3: RR (95% CrI), estimated treatment effect (N = 931 vs placebo N = 1018): 0.66 (0.39, 1.11)
TEAE, Grade 4: Probability of Superiority (N = 931 vs placebo N = 1018): 42.6
TEAE, Grade 4: RR (95% CrI), estimated treatment effect (N = 931 vs placebo N = 1018): 1.09 (0.42, 2.86)
TEAE, Grade 5: Probability of Superiority (N = 931 vs placebo N = 1018): 67.5
TEAE, Grade 5: RR (95% CrI), estimated treatment effect (N = 931 vs placebo N = 1018): 0.76 (0.22, 2.46)
TEAE, Grade 1, % of patients [1]: (0.9%)
TEAE, Grade 1, RR (95% CrI) vs placebo [1]: 0.53 (0.18, 1.38)
TEAE, Grade 2, % of patients [1]: (9.8%)
TEAE, Grade 2, RR (95% CrI) vs placebo [1]: 1.13 (0.78, 1.63)
TEAE, Grade 3, % of patients [1]: (1.3%)
TEAE, Grade 3, RR (95% CrI) vs placebo [1]: 0.47 (0.19, 1.05)
TEAE, Grade 4, % of patients [1]: (0.7%)
TEAE, Grade 4, RR (95% CrI) vs placebo [1]: 3.01 (0.61, 23.67)
TEAE, Grade 5, % of patients [1]: (0%)
TEAE, Grade 5, RR (95% CrI) vs placebo [1]: 0.21 (0.01, 1.64)
TEAE, Grade 1, % of patients [2]: (1.8%)
TEAE, Grade 1, RR (95% CrI) vs placebo [2]: 0.78 (0.40, 1.51)
TEAE, Grade 2, % of patients [2]: (8.9%)
TEAE, Grade 2, RR (95% CrI) vs placebo [2]: 0.95 (0.70, 1.29)
TEAE, Grade 3, % of patients [2]: (1.9%)
TEAE, Grade 3, RR (95% CrI) vs placebo [2]: 0.56 (0.30, 1.01)
TEAE, Grade 4, % of patients [2]: (0.8%)
TEAE, Grade 4, RR (95% CrI) vs placebo [2]: 1.99 (0.58, 7.88)
TEAE, Grade 5, % of patients [2]: (0.4%)
TEAE, Grade 5, RR (95% CrI) vs placebo [2]: 0.86 (0.20, 3.40)
TEAE, Grade 1, % of patients [3]: 5.6%
TEAE, Grade 1, RR (95% CrI) vs placebo [3]: 1.23 (0.49, 3.08)
TEAE, Grade 2, % of patients [3]: 11.9%
TEAE, Grade 2, RR (95% CrI) vs placebo [3]: 1.16 (0.63, 2.16)
TEAE, Grade 3, % of patients [3]: 3.5%
TEAE, Grade 3, RR (95% CrI) vs placebo [3]: 0.60 (0.21, 1.53)
TEAE, Grade 4, % of patients [3]: 1.4%
TEAE, Grade 4, RR (95% CrI) vs placebo [3]: 0.58 (0.12, 2.22)
TEAE, Grade 5, % of patients [3]: 0 (0%)
TEAE, Grade 5, RR (95% CrI) vs placebo [3]: 1.21 (0.03, 47.34)
treatment emergent adverse events compared to placebo (final analysis, listed as peginterferon lambda): no important differences
Premature discontinuation, Request by participant to terminate study treatment, % (n=916): (0.0%)
Premature discontinuation, reason Hospitalization, % (n=916): (0.0%)
Premature discontinuation, reason Non-compliance with Study Therapy, % (n=916): (0.0%)
Premature discontinuation, reason Other, % (n=916): (0.0%)
Prematurely discontinued study drug, % (n=916, within 28 days of randomization): (0.0%)
incidence of any adverse event compared with placebo (preliminary ITT): indistinguishable
